Experimental data as given in patent publication US20220364069A1, “METHOD FOR THE PRODUCTION OF AN ENZYMATIC COMPOSITION COMPRISING A RECOMBINANT ENDOPEPTIDASE” (NEMYSIS LIMITED, priority 2019, published 2022).
Entries after “also recorded” stand apart in the source; their conditions may differ.

Legend:
trypsin = assay: Resistance of E40 to trypsin (suc-Ala-Ala-Pro-Phe-pNA cleavage); type: biochemical; details: pH 6 and 7; protease 1:2 (w/w) versus E40; 110 minutes, 37° C.
Experimental: (§1) The resistance of recombinant E40, obtained by the method of the invention, to the proteolytic activity of gastric (pepsin) and duodenal (trypsin) digestive proteases was further evaluated (FIG. 4), using suc-Ala-Ala-Pro-Phe-pNA as substrate. Aqueous solutions of E40 enzyme, alone or in combination with pepsin and/or trypsin (0.2 mg/ml E40, 0.1 mg/ml Pepsin or Trypsin), were diluted in citrate-phosphate buffer containing suc-Ala-Ala-Pro-Phe-pNA at pH 4, 4.5 and 5 for pepsin, and at pH 6 and 7 for trypsin. Final concentrations in reaction mix were: 200 μM substrate, 1-4 nM E40 for incubations at pH 4 to 5, or 4 nM and 7 nM for incubations at pH 6 or 7, respectively (E40 concentration was adjusted according to optimum pH). The digestive protease was maintained in the ratio 1:2 (w/w) versus E40.
(§2) Reactions (200 μl volume in 96-wells flat bottom ptiter plates) were protracted for 110 minutes at 37° C. Absorbance was monitored every 10 min for determining the enzymatic activity. Pepsin and trypsin without E40 were processed in the same way and tested in the same condition as reference control. Each analysis was carried out in duplicate.

gluten of bread = assay: In vitro oral-gastric digestion of bread, gluten by Elisa-R5 competitive; type: biochemical, T. aestivum
Experimental: In order to evaluate the efficiency of E40 enzyme as oral supplement to abolish the gluten intake in patients, in vitro oral-gastric digestion model was applied. Digestion step of bread (T. aestivum) was carried out under simulated physiological condition including oral mastication and presence of digestive gastric enzymes. Digestion time was selected according to the average time of chyme's transit in the gastric compartments. E40 enzyme preparation was added at beginning of the simulated gastric phase. The destruction of the T cell epitopes and toxic peptides was tested using monoclonal antibodies (Elisa-R5 competitive), according to the manufacturer's and to the AOAC guidelines.

peanut proteins = assay: In vitro digestion of peanut proteins (SDS-PAGE, HPLC); type: biochemical; details: 1:20 enzyme:substrate, up to 120 min
Experimental: Degradation of peanuts proteins incubated in the presence of recombinant E40 has been assessed by SDS-PAGE and HPLC analysis. Results are shown in FIG. 9 (A: SDS-PAGE; B: HPLC analysis).

pepsin = target: T1, pepsin (Sus scrofa, UniProt P00791); assay: Resistance of E40 to pepsin (suc-Ala-Ala-Pro-Phe-pNA cleavage); type: biochemical; details: pH 4, 4.5 and 5; protease 1:2 (w/w) versus E40; 110 minutes, 37° C.
T1 construct: purchased Sigma-Aldrich (Milan, Italy)
T1 sequence (P00791 60-385): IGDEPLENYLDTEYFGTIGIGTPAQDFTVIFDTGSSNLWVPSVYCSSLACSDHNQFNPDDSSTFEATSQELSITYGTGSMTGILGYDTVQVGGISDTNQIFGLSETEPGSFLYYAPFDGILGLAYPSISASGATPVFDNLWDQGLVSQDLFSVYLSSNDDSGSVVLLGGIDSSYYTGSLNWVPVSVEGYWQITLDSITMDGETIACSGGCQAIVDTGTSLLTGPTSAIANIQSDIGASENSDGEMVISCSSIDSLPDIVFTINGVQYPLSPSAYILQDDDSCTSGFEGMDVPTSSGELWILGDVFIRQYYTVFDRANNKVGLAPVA
Experimental: as §1, §2

33-mer gliadin peptide = assay: Digestion of 33-mer gliadin peptide monitored by LC-MS/MS; type: biochemical
Chain of 33-mer gliadin peptide (as listed by the source): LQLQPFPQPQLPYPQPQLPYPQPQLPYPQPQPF
Experimental: The 33-mer gliadin peptide degradation was monitored by LC-MS/MS, before (FIG. 5, panel A) and after (FIG. 5, panels B-E) digestion by recombinant E40. Digestion was performed in U-bottom 96-wells microtiter plate; 33-mer was diluted in citrate phosphate buffer (pH 5) to 5 mg/ml, mixed with the enzyme preparation comprising recombinant E40 diluted in the same buffer (1:48 enzyme vs substrate molar ratio) and incubated at 37° C. At the time points 0, 15, 30 and 60 minutes, aliquots (10 μl) were taken, and reactions were stopped by boiling for 3 minutes before being analyzed by LC-MS/MS.
Samples were analyzed by HPLC system Accela Instrument (Thermo Fisher Scientific, San Jose, Calif.) coupled to both UV detector and LTQ-XL ion trap mass spectrometer (Thermo Fisher Scientific). […] E40 cleaving site occurs between F-P and Q-L residues of gliadin, leading to short peptides lacking of T-cell stimulatory capacity (FIG. 5, F)^3. This finding was also observed at more diluted E40 concentration (1:96, molar ratio): in that case complete 33-mer degradation took 30 minutes (not shown).

B1: E40: Actinoallomurus endopeptidase with glutenase activity, sequence comprising SEQ ID NO: 1; recombinant histidine-tagged form SEQ ID NO: 2 from S. lividans (protein)
chain: AAPSGLSPANLQSAYKLPSSTAGSGQTVAIVDAYDAPTAEADLNVYRSQFGLGACTTANGCFKKVDQNGGTSYPRKDGGWAQEISLDLDMVSAVCPNCKIVLVEAKTNSFANLGTAENTAASLANVISNSYGGSDASDASYGSYYNHPGKAITVSSGDAGYGVEYPASSHYVTAVGGTSLRTASTSRGWSETAWSGAGSGCSAYNTALSGQSGLTGCSRRAVADVSAVADPATGVAVYDSTAYQGQSGWMVFGGTSVAAPIIGGVYGLAANAASIDNNYPYAHTSSLFDVTSGSNGTCTTTKWCTAGTGWDGPTGLGTPNGTGAFGHHHHHH
modifications: Actinoallomurus
trypsin
  E40 cleaving activity in presence of trypsin: unaffected
Gluten of bread; E40 added at beginning of simulated gastric phase
  gluten content of bread digest (Elisa-R5): 16.2 ppm (ng/mL)
Gluten of bread; oral-gastric digest
  gluten content of digested bread including E40: < 20 ppm
Peanut proteins
  peanut protein digestion: degradation of peanut proteins
Purified enzyme preparation, pH range 2 to 8
  pH of maximal activity: 5
Purified enzyme preparation, relative to pH 5
  residual activity at pH 3: ~40%
Purified sample of Example 4, pH 5, 37° C.
  enzyme activity of purified sample: 41000 U/mg protein
pepsin
  E40 cleaving activity in presence of pepsin: unaffected; also recorded: slightly enhanced
33-mer gliadin peptide; 1:48 enzyme vs substrate molar ratio, pH 5, 37° C.
  time to complete disappearance of native 33-mer peptide signal: 15 min
33-mer gliadin peptide; 1:96 molar ratio
  time to complete 33-mer degradation: 30 min
